# Laboratory results taken from the supplement of paper PMC9732359.
# ± gives the uncertainty stated by the source.
# Assay: protein stability index of a GFP-peptide fusion (yeast GPS) (PSI 1-4); higher = more stable; sorted into four equal gates, so the index is relative within each strain
# In short: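 Each library plasmid carries Cherry plus GFP with a tiled 17-residue yeast protein peptide fused downstream, and the pooled library was carried in yeast. Mid-log cultures in leucine-free medium were sorted into four equal gates by GFP/Cherry ratio. Reads from Illumina sequencing of PCR-amplified plasmids from each gate were assigned to strains by barcodes. Per peptide, the protein stability index was computed as the summed products of gate read frequency and gate number.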
Sequence,protein stability index (doa10∆),protein stability index (pdr5∆),protein stability index (san1∆),protein stability index (ubr1∆)
LTWLSSFSVCKIRCFRY [IRR1],2.07 ± 0.053,1.59 ± 0.054,1.58 ± 0.087,1.61 ± 0.04
NGTVNNNSALSNVNSDI [RPT3],2.91 ± 0.1,2.77 ± 0.067,1.81 ± 0.087,2.15 ± 0.051
ESITYQKIMILQRTILN [RGR1],1.61 ± 0.069,1.69 ± 0.06,1.49 ± 0.099,2.06 ± 0.065
KVDGKVRTDTTYPAGFM [RPS4A],3.41 ± 0.13,3.18 ± 0.13,2.97 ± 0.073,3.15 ± 0.11
GLKRSQLDEFKNKYLKD [SWP82],3.11 ± 0.13,2.89 ± 0.21,2.89 ± 0.12,2.69 ± 0.17
SEETQFKYVEDRFPLKL [ITC1],3.47 ± 0.13,3.09 ± 0.13,3.27 ± 0.09,3.01 ± 0.14
KSVLGDGKKHSVFYTIL [RPO31],2.19 ± 0.087,2.42 ± 0.085,3.02 ± 0.08,2.1 ± 0.087
VTQQKRSLDENRLEIKY [SMC1],2.06 ± 0.064,2.15 ± 0.096,2.12 ± 0.16,2.08 ± 0.062
EFTLFMDIAERIAVLHQ [YGL172W/NUP49],2.77 ± 0.075,2.54 ± 0.056,2.24 ± 0.068,2.9 ± 0.048
YGRQELADDLITKMLAS [RPN2],,2.92 ± 0.29,,3 ± 0.079
KLLQLFLTPMDSIDLAP [YML103C/NUP188],1.9 ± 0.071,1.54 ± 0.062,1.76 ± 0.092,1.36 ± 0.038
SMGSILLSFVLGVVFGR [YML031W/NDC1],2.39 ± 0.046,2.13 ± 0.043,2.56 ± 0.055,2.64 ± 0.059
QPIEKNGDKMPLKFKLG [YJR042W/NUP85],2.74 ± 0.064,2.98 ± 0.069,2.52 ± 0.086,3.08 ± 0.042
HHAIEEAESLLQFHVAT [RPO21],2.67 ± 0.094,2.89 ± 0.13,2.64 ± 0.11,2.94 ± 0.087
AEEFVAGVSHGTLGEIF [SMX3],,,,3.57 ± 0.28
TVLADEFIAHRLGLIPL [RPB3],2.4 ± 0.087,2.16 ± 0.12,2.96 ± 0.047,3.12 ± 0.071
LADKLENYEGKQDKTLQ [YIL149C/MLP2],3.15 ± 0.18,3.22 ± 0.22,2.92 ± 0.15,3.17 ± 0.22
TFFPRCIIAVSCTLLER [POP1],1.31 ± 0.024,1.36 ± 0.032,1.5 ± 0.051,1.63 ± 0.03
GAGSAFGFSSSGTAATG [YOR098C/NUP1],3.47 ± 0.2,3.41 ± 0.15,3.41 ± 0.17,3.57 ± 0.14
VISSGPLAAGNFVSEKG [RPC53],2.81 ± 0.093,3.13 ± 0.11,3.14 ± 0.094,2.48 ± 0.078
DSAKEWPQSKNCEYEDP [RPB3],3.6 ± 0.19,3.13 ± 0.13,3.27 ± 0.14,3.27 ± 0.14
TPKVVRSQDQENPAFLP [SEC65],2.66 ± 0.074,2.57 ± 0.067,2.16 ± 0.063,2.65 ± 0.055
SNSALFRAVGEGNAQLV [FAS1],2.15 ± 0.11,2.37 ± 0.11,2.27 ± 0.096,1.94 ± 0.09
NDIPQTESPLKTVDSSI [SSN2],2.99 ± 0.071,3.01 ± 0.055,2.81 ± 0.061,3.03 ± 0.032
PRETIPFLHLRKKTPAG [FAS2],2.73 ± 0.13,2.43 ± 0.1,2.63 ± 0.13,2.78 ± 0.094
IGLDTQQVEGKLSQMIL [RPN6],2.95 ± 0.066,3.05 ± 0.069,3.04 ± 0.071,3.06 ± 0.056

Sequence,protein stability index (doa10∆),protein stability index (pdr5∆),protein stability index (san1∆),protein stability index (ubr1∆)
SMVLFFVCLSCSHIFTS [RPB9],1.55 ± 0.073,1.4 ± 0.081,1.43 ± 0.14,1.67 ± 0.095
KTVPFQVNQLQRILEVL [SSN3],2.27 ± 0.033,2.11 ± 0.031,1.63 ± 0.041,2.08 ± 0.03
LKEERAIEPETFTQLVS [PUP3],2.5 ± 0.057,2.85 ± 0.059,2.94 ± 0.047,2.62 ± 0.04
AVATPKAEVTQLSNGIV [COR1],2.77 ± 0.074,3.11 ± 0.066,3.12 ± 0.053,2.88 ± 0.045
NNLKNSGNSANNMNVNM [GAL11],2.92 ± 0.046,2.9 ± 0.041,2.87 ± 0.035,3.02 ± 0.039
PFLLMELHKKLVEAAKL [YDL116W/NUP84],1.41 ± 0.11,1.13 ± 0.093,,1.25 ± 0.13
FIRLPHWPLNWYLILSI [RGR1],1.46 ± 0.077,1.4 ± 0.064,1.33 ± 0.23,1.37 ± 0.062
KERSDGKRHIFDVNTLC [CDC53],1.27 ± 0.052,1.76 ± 0.062,1.26 ± 0.13,1.92 ± 0.085
HDKNIQKLLKQLDSDAN [ISW2],2.58 ± 0.049,2.52 ± 0.049,2.69 ± 0.053,2.93 ± 0.032
ATAVAHVKAGKGLIKVN [RPS16A],1.66 ± 0.2,1.9 ± 0.12,,1.21 ± 0.24
PLKIHRTPYLTSLKKIK [SWI1],1.81 ± 0.054,1.82 ± 0.043,1.75 ± 0.07,1.79 ± 0.039
LQYLDKHIKNLEDDSLL [RPN12],3.44 ± 0.068,3.42 ± 0.081,3.35 ± 0.063,3.3 ± 0.049
SQVVETHKVTDIYSHEY [YMR129W/POM152],2.75 ± 0.083,2.77 ± 0.089,2.68 ± 0.073,2.83 ± 0.15
FEQCCKEKKELQMRLKE [YIL149C/MLP2],,3.11 ± 0.29,,
IGIPVNKASLAQYEVLA [QCR2],2.52 ± 0.06,2.42 ± 0.049,1.92 ± 0.088,2.81 ± 0.043
FPTRLGQGYRKVGIWPY [YJL039C/NUP192],3.49 ± 0.17,3.25 ± 0.14,2.96 ± 0.12,
ETFISSMTATADVLAMA [RIP1],1.93 ± 0.11,2.48 ± 0.097,3.13 ± 0.077,1.44 ± 0.054
MTLEDNNVTSNPSEFTP [SSN2],2.75 ± 0.069,3.03 ± 0.067,2.92 ± 0.068,3.16 ± 0.064
IAATQDFITGSYLISHK [RPO31],3.03 ± 0.083,3.14 ± 0.085,2.83 ± 0.093,3.13 ± 0.038
VNQEFIFEAISLSDELN [YJL039C/NUP192],2.71 ± 0.071,2.65 ± 0.067,2.63 ± 0.051,2.75 ± 0.058
SFTSATERHIQVGDGLE [PRE7],2.79 ± 0.098,2.56 ± 0.075,3.35 ± 0.091,2.85 ± 0.049
TLLKKANRDDVKGRENE [RPC82],,3.5 ± 0.23,,3.15 ± 0.17
GEDSTKPLGPCDVFWVQ [POP1],3.12 ± 0.094,2.97 ± 0.082,3.17 ± 0.072,2.8 ± 0.057
DLKFEPQGRQSTTFADC [RPC40],3.37 ± 0.19,3.3 ± 0.29,,3.15 ± 0.075
RRGTALGIKKEKRIQYA [RPB2],1.95 ± 0.08,1.44 ± 0.14,2.33 ± 0.15,2.89 ± 0.072
VTLNKYCSGNIYDFHKM [YJL039C/NUP192],2.7 ± 0.044,2.81 ± 0.051,2.91 ± 0.04,2.78 ± 0.041
